{"source": "patent US5622933A", "about": "“Multiple branch peptide constructions for use against HIV” (priority 1993, dated 1997)", "key": {"[1]": {"test_system": "HIV-1 or HIV-2", "test": "Infection of human PBLs (RT activity, p24gag)", "type": "cell-based", "conditions": "MBPC 10^-5 M; days 10 and 13 after infection; culture supernatants", "description": "(§1) Peripheral blood lymphocytes (PBLs) were obtained from healthy donors, stimulated with phytohemagglutinin, and cultivated in RPMI 1640 containing 10% fetal calf serum and interleukin-2 (complete medium). Samples of 6×10^6 cells/ml were either treated or not treated with the indicated MBPC at a concentration of 10^-5 M and exposed to HIV-1 or HIV-2 (100 TCID50) for 1 hour at 37° C. in the continued presence of MBPCs. After thorough washing, PBLs were cultured in complete medium with 10^-5 M of the corresponding MBPC. The state of infection was assessed by determination of RT activity (for both HIV-1 and HIV-2 isolates) and HIV-1 p24^gag measurements (Coulter kit, cut-off 10 pg/ml) in the case of HIV-1 isolates 10 days post-infection. The MBPC treatment used were as follows: 1-none; 2- [GPGRAF]8 -MLC; 3-[[…]]4 -MLC; 4- [[…]]4 -MLC (a non-HIV related MBPC) (MLC indicates a core lysine structure). The results shown in FIGS. 2A-2C are representative of three separate experiments. The nature of the viral isolates used was checked by PCR (HIV-1 versus HIV-2 isolates) and RIPA for discriminating between HIV-1 (LAI) and HIV-1 (NDK)."}, "[2]": {"test_system": "GalCer receptor", "test": "Binding of gp120 to GalCer (HPTLC binding assay)", "description": "In another experiment with the same MBPCs, the effect of MBPCs on the binding of gp120 to GalCer was analyzed using a high performance thin layer chromatography (HPTLC) binding assay. MBPCs (10^-4 M) were preincubated with GalCer for 1 hour at room temperature. After thorough washing, the HPTLC plates were incubated with HIV-1 recombinant gp120 (2.5 ug/ml) followed by rabbit anti-gp120 and ^125 I-goat anti-rabbit IgG. The plates were washed in PBS and exposed to Amersham Hyperfilm MP for 8 hours. As shown in FIG. 5B treatment of HT-29 cells with active MBPCs protected the cells from infection by HIV-1 (NDK isolate). This antiviral effect was correlated with its ability to block the binding of gp120 to GalCer."}, "[3]": {"test_system": "HIV-2 (ROD)", "test": "Fusion between chronically infected CEM cells and MT-2 cells", "type": "cell-based", "conditions": "separate tests"}, "[4]": {"test_system": "HIV-1 (NDK)", "test": "Fusion between chronically infected CEM cells and MT-2 cells", "type": "cell-based", "conditions": "separate tests"}, "[5]": {"test_system": "C57/BL6 black mice", "test": "Immunogenicity in mice (serum ELISA for anti-MBPC3 antibody)", "type": "in vivo, mouse", "description": "The injection route was intraperitoneal. The blood samples were collected by sub-orbital eye punction. The blood samples were left for 1 hour at 37° C., then overnight at 4° C., and the supernatants (serum samples) thus obtained were separated from the pellets. Sera were tested by ELISA, looking for specific anti-MBPC3 antibody.\n[…] After saturation with 400 μL of casein (5 g/100 ml), different serum dilutions were added for 2 hours at 37° C. The controls were sera from non-immunized rabbits and mice. After rinsing (5×), 50 μl of 1:5000 of peroxidase-labeled swine anti-rabbit IgG or anti-mouse IgG (Dakopatts, Copenhagen, Denmark) were added for 1 hour at 37° C. After further rinsing (5×), 100 μl of ortho-phenylenediamine were added for 30 min in the dark at room temperature. The reaction was stopped by adding 50 μl of 4N sulfuric acid, and optical density (OD) ratios were determined at 492/620 nm."}, "[6]": {"test_system": "HIV-1 (LAI)", "test": "Fusion between chronically infected CEM cells and MT-2 cells", "type": "cell-based", "conditions": "separate tests"}, "[7]": {"test_system": "HIV-2", "test": "Infection of human PBLs", "type": "cell-based", "conditions": "MBPC 10^-5 M", "description": "as §1"}}, "note": "Several values for one entry are separate records, joined by “and”; a condition that tells them apart may be missing. Identical values can stand only once. Ends that are not written are not given here."}
{"substance": "(GPGRAF)8 -(K)4 -(K)2 -K-βA-OH [MBPC.3]", "values": [{"measurement": "RT activity lower in MBPCs-treated samples than control samples", "setting": "[1]", "value": "more than 90%"}, {"measurement": "binding to / activity on the Galactosyl Ceramide receptor", "setting": "[2]", "value": "bind to the second receptor"}, {"measurement": "block of fusion", "setting": "[3]", "value": "able to block the fusion"}, {"measurement": "block of fusion", "setting": "[4]", "value": "able to block the fusion"}, {"measurement": "titers of anti-GPGRAF antibodies", "setting": "[5]; mice injected", "value": "did not produce significant titers"}, {"measurement": "optical density (OD) ratio 492/620 nm (×10^3)", "setting": "[5]; plate 1, mouse serum 10^-2, coat 0.5 μg MBPC.3/ml", "value": "382 and 381"}, {"measurement": "optical density (OD) ratio 492/620 nm (×10^3)", "setting": "[5]; plate 1, mouse serum 10^-2, coat 1 μg MBPC.3/ml", "value": "444 and 419"}, {"measurement": "optical density (OD) ratio 492/620 nm (×10^3)", "setting": "[5]; plate 1, mouse serum 10^-2, coat 5 μg MBPC.3/ml", "value": "1045 and 933"}, {"measurement": "optical density (OD) ratio 492/620 nm (×10^3)", "setting": "[5]; plate 1, mouse serum 10^-2, coat 10 μg MBPC.3/ml", "value": "1162 and 1199"}, {"measurement": "optical density (OD) ratio 492/620 nm (×10^3)", "setting": "[5]; plate 1, mouse serum 10^-3, coat 0.5 μg MBPC.3/ml", "value": "128 and 135"}, {"measurement": "optical density (OD) ratio 492/620 nm (×10^3)", "setting": "[5]; plate 1, mouse serum 10^-3, coat 1 μg MBPC.3/ml", "value": "126 and 111"}, {"measurement": "optical density (OD) ratio 492/620 nm (×10^3)", "setting": "[5]; plate 1, mouse serum 10^-3, coat 5 μg MBPC.3/ml", "value": "285 and 236"}, {"measurement": "optical density (OD) ratio 492/620 nm (×10^3)", "setting": "[5]; plate 1, mouse serum 10^-3, coat 10 μg MBPC.3/ml", "value": "339 and 291"}, {"measurement": "optical density (OD) ratio 492/620 nm (×10^3)", "setting": "[5]; plate 1, mouse serum 10^-4, coat 0.5 μg MBPC.3/ml", "value": "56 and 38"}, {"measurement": "optical density (OD) ratio 492/620 nm (×10^3)", "setting": "[5]; plate 1, mouse serum 10^-4, coat 1 μg MBPC.3/ml", "value": "50 and 51"}, {"measurement": "optical density (OD) ratio 492/620 nm (×10^3)", "setting": "[5]; plate 1, mouse serum 10^-4, coat 5 μg MBPC.3/ml", "value": "121 and 132"}, {"measurement": "optical density (OD) ratio 492/620 nm (×10^3)", "setting": "[5]; plate 1, mouse serum 10^-4, coat 10 μg MBPC.3/ml", "value": "172 and 138"}, {"measurement": "optical density (OD) ratio 492/620 nm (×10^3)", "setting": "[5]; plate 2, mouse serum 10^-2, coat 1 μg MBPC.3/ml", "value": "381 and 429"}, {"measurement": "optical density (OD) ratio 492/620 nm (×10^3)", "setting": "[5]; plate 2, mouse serum 10^-2, coat 5 μg MBPC.3/ml", "value": "1514 and 1344"}, {"measurement": "optical density (OD) ratio 492/620 nm (×10^3)", "setting": "[5]; plate 2, mouse serum 10^-2, coat 10 μg MBPC.3/ml", "value": "1540 and 1457"}, {"measurement": "optical density (OD) ratio 492/620 nm (×10^3)", "setting": "[5]; plate 2, mouse serum 10^-3, coat 0.5 μg MBPC.3/ml", "value": "47 and 82"}, {"measurement": "optical density (OD) ratio 492/620 nm (×10^3)", "setting": "[5]; plate 2, mouse serum 10^-3, coat 1 μg MBPC.3/ml", "value": "54 and 65"}, {"measurement": "optical density (OD) ratio 492/620 nm (×10^3)", "setting": "[5]; plate 2, mouse serum 10^-3, coat 5 μg MBPC.3/ml", "value": "263 and 273"}, {"measurement": "optical density (OD) ratio 492/620 nm (×10^3)", "setting": "[5]; plate 2, mouse serum 10^-3, coat 10 μg MBPC.3/ml", "value": "334 and 291"}, {"measurement": "optical density (OD) ratio 492/620 nm (×10^3)", "setting": "[5]; plate 2, mouse serum 10^-4, coat 1 μg MBPC.3/ml", "value": "15 and 17"}, {"measurement": "optical density (OD) ratio 492/620 nm (×10^3)", "setting": "[5]; plate 2, mouse serum 10^-4, coat 5 μg MBPC.3/ml", "value": "88 and 97"}, {"measurement": "optical density (OD) ratio 492/620 nm (×10^3)", "setting": "[5]; plate 2, mouse serum 10^-4, coat 10 μg MBPC.3/ml", "value": "132 and 188"}, {"measurement": "optical density (OD) ratio 492/620 nm (×10^3)", "setting": "[5]; plate 3, mouse serum 10^-2, coat 0.5 μg MBPC.3/ml", "value": "204 and 198"}, {"measurement": "optical density (OD) ratio 492/620 nm (×10^3)", "setting": "[5]; plate 3, mouse serum 10^-2, coat 1 μg MBPC.3/ml", "value": "241 and 200"}, {"measurement": "optical density (OD) ratio 492/620 nm (×10^3)", "setting": "[5]; plate 3, mouse serum 10^-2, coat 5 μg MBPC.3/ml", "value": "636 and 630"}, {"measurement": "optical density (OD) ratio 492/620 nm (×10^3)", "setting": "[5]; plate 3, mouse serum 10^-2, coat 10 μg MBPC.3/ml", "value": "639 and 664"}, {"measurement": "optical density (OD) ratio 492/620 nm (×10^3)", "setting": "[5]; plate 3, mouse serum 10^-3, coat 0.5 μg MBPC.3/ml", "value": "48 and 49"}, {"measurement": "optical density (OD) ratio 492/620 nm (×10^3)", "setting": "[5]; plate 3, mouse serum 10^-3, coat 1 μg MBPC.3/ml", "value": "50 and 53"}, {"measurement": "optical density (OD) ratio 492/620 nm (×10^3)", "setting": "[5]; plate 3, mouse serum 10^-3, coat 5 μg MBPC.3/ml", "value": "159 and 163"}, {"measurement": "optical density (OD) ratio 492/620 nm (×10^3)", "setting": "[5]; plate 3, mouse serum 10^-3, coat 10 μg MBPC.3/ml", "value": "172 and 168"}, {"measurement": "optical density (OD) ratio 492/620 nm (×10^3)", "setting": "[5]; plate 3, mouse serum 10^-4, coat 0.5 μg MBPC.3/ml", "value": "22 and 21"}, {"measurement": "optical density (OD) ratio 492/620 nm (×10^3)", "setting": "[5]; plate 3, mouse serum 10^-4, coat 1 μg MBPC.3/ml", "value": 22}, {"measurement": "optical density (OD) ratio 492/620 nm (×10^3)", "setting": "[5]; plate 3, mouse serum 10^-4, coat 5 μg MBPC.3/ml", "value": "83 and 84"}, {"measurement": "optical density (OD) ratio 492/620 nm (×10^3)", "setting": "[5]; plate 3, mouse serum 10^-4, coat 10 μg MBPC.3/ml", "value": "85 and 84"}, {"measurement": "optical density (OD) ratio 492/620 nm (×10^3)", "setting": "[5]; plate 4, mouse serum 10^-2, coat 0.5 μg MBPC.3/ml", "value": "495 and 468"}, {"measurement": "optical density (OD) ratio 492/620 nm (×10^3)", "setting": "[5]; plate 4, mouse serum 10^-2, coat 1 μg MBPC.3/ml", "value": "553 and 439"}, {"measurement": "optical density (OD) ratio 492/620 nm (×10^3)", "setting": "[5]; plate 4, mouse serum 10^-2, coat 5 μg MBPC.3/ml", "value": "1233 and 1336"}, {"measurement": "optical density (OD) ratio 492/620 nm (×10^3)", "setting": "[5]; plate 4, mouse serum 10^-2, coat 10 μg MBPC.3/ml", "value": "1454 and 1340"}, {"measurement": "optical density (OD) ratio 492/620 nm (×10^3)", "setting": "[5]; plate 4, mouse serum 10^-3, coat 0.5 μg MBPC.3/ml", "value": "90 and 95"}, {"measurement": "optical density (OD) ratio 492/620 nm (×10^3)", "setting": "[5]; plate 4, mouse serum 10^-3, coat 1 μg MBPC.3/ml", "value": "83 and 88"}, {"measurement": "optical density (OD) ratio 492/620 nm (×10^3)", "setting": "[5]; plate 4, mouse serum 10^-3, coat 5 μg MBPC.3/ml", "value": "299 and 297"}, {"measurement": "optical density (OD) ratio 492/620 nm (×10^3)", "setting": "[5]; plate 4, mouse serum 10^-3, coat 10 μg MBPC.3/ml", "value": "334 and 318"}, {"measurement": "optical density (OD) ratio 492/620 nm (×10^3)", "setting": "[5]; plate 4, mouse serum 10^-4, coat 0.5 μg MBPC.3/ml", "value": 28}, {"measurement": "optical density (OD) ratio 492/620 nm (×10^3)", "setting": "[5]; plate 4, mouse serum 10^-4, coat 1 μg MBPC.3/ml", "value": "27 and 21"}, {"measurement": "optical density (OD) ratio 492/620 nm (×10^3)", "setting": "[5]; plate 4, mouse serum 10^-4, coat 5 μg MBPC.3/ml", "value": "124 and 103"}, {"measurement": "optical density (OD) ratio 492/620 nm (×10^3)", "setting": "[5]; plate 4, mouse serum 10^-4, coat 10 μg MBPC.3/ml", "value": "133 and 113"}, {"measurement": "block of fusion", "setting": "[6]", "value": "able to block the fusion"}]}
{"substance": "(RKSIHIGPGRAFYT)4 -(K)2 -K-βA-OH (also: four copies on lysine core (K)2-K-βA-OH) [MBPC.5, tetradecapeptide MBPC]", "values": [{"measurement": "RT activity lower in MBPCs-treated samples than control samples", "setting": "[1]", "value": "more than 90%"}, {"measurement": "potency for inhibition of HIV-2 infection, in words", "setting": "[7]", "value": "less potent than [GPGRAF]8 -MLC"}]}
